{"source": "paper PMC11952320", "test_in_all_cases": "co-IP", "key": {"[1]": {"biological_target": "human GABAA receptor β2 subunit, variant Q209F210delinsH (human) (UniProt P47870)"}, "[2]": {"biological_target": "human GABAA receptor β2 subunit, epilepsy-associated variant I299S (human) (UniProt P47870)"}, "[3]": {"biological_target": "human GABAA receptor β2 subunit, epilepsy-associated variant R240T (human) (UniProt P47870)"}, "[4]": {"biological_target": "human GABAA receptor β2 subunit, epilepsy-associated variant I246T (human) (UniProt P47870)"}}, "data": [{"substance": "human GABAA receptor α1 subunit (GABRA1)", "values": [{"measurement": "percent reduction of the ratio of α1 to β2 after co-IP, against WT", "setting": "[1]", "value": 75, "unit": "%"}, {"measurement": "percent reduction of the ratio of α1 to β2 after co-IP, against WT", "setting": "[2]", "value": 30, "unit": "%"}, {"measurement": "percent reduction of the ratio of α1 to β2 after co-IP, against WT", "setting": "[3]", "value": 80, "unit": "%"}, {"measurement": "percent reduction of the ratio of α1 to β2 after co-IP, against WT", "setting": "[4]", "value": 30, "unit": "%"}]}]}
